Square brackets hold non-standard residues; d marks the D form. Ends that are not written are not given here.
T1: human GHRH receptor (human, UniProt Q02643 23-423)
T1 construct: whole, on cells; Assayed in BHK cell membrane preparations (25 ug protein per tube), not on intact cells; also called hGHRH-R; hGHRH receptor
T1 sequence (looked up): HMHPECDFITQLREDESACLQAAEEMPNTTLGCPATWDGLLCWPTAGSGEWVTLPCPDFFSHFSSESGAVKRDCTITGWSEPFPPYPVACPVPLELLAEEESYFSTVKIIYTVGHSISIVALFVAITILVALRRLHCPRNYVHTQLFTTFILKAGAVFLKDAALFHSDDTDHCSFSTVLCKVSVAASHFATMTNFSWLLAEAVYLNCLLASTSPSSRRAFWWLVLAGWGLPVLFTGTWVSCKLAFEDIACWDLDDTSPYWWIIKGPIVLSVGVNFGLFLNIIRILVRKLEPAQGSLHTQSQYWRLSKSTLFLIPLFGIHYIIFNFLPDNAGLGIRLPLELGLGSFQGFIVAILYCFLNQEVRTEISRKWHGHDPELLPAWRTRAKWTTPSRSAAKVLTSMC

T2: rat GHRH receptor (rat, UniProt Q02644 23-464)
T2 construct: whole, on cells; Native tissue membrane preparation; In the in vivo study it is the receptor on rat pituitary somatotrophs; also called rat pituitary GHRH receptor
T2 sequence (looked up): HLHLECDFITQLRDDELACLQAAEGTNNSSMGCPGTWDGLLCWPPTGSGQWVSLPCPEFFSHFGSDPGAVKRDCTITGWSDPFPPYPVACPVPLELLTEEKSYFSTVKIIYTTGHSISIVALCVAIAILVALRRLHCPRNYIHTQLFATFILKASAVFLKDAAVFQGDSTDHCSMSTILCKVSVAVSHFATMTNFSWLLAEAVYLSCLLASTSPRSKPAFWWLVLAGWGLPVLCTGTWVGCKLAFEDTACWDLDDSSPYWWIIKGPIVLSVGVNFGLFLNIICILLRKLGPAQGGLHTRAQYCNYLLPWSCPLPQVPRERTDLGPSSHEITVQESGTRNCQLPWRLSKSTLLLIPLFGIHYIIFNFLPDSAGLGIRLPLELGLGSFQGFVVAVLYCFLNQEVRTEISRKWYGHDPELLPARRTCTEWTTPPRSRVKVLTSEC

B1: [D-Ala2, D-Tyr10, D-Ala15, Lys22] hGHRH(1-29)-NH2 (peptide)
peptide: Y[dA]DAIFTNS[dY]RKVL[dA]QLSARKKLQDIMSR-NH2
modifications: also: acetate salt
notes: also called GHRH analogue #5; human GHRH analogue #5
B2: [D-Ala2, Ala8, D-Tyr10, Ala15, D-Lys21, Lys22] hGHRH(1-29)-NH2 (peptide)
peptide: Y[dA]DAIFTAS[dY]RKVLAQLSAR[dK]KLQDIMSR-NH2
modifications: N-terminus assumed
SMILES: CC[C@H](C)[C@H](NC(=O)[C@H](C)NC(=O)[C@H](CC(=O)O)NC(=O)[C@@H](C)NC(=O)[C@@H](N)Cc1ccc(O)cc1)C(=O)N[C@@H](Cc1ccccc1)C(=O)N[C@H](C(=O)N[C@@H](C)C(=O)N[C@@H](CO)C(=O)N[C@H](Cc1ccc(O)cc1)C(=O)N[C@@H](CCCNC(=N)N)C(=O)N[C@@H](CCCCN)C(=O)N[C@H](C(=O)N[C@@H](CC(C)C)C(=O)N[C@@H](C)C(=O)N[C@@H](CCC(N)=O)C(=O)N[C@@H](CC(C)C)C(=O)N[C@@H](CO)C(=O)N[C@@H](C)C(=O)N[C@@H](CCCNC(=N)N)C(=O)N[C@H](CCCCN)C(=O)N[C@@H](CCCCN)C(=O)N[C@@H](CC(C)C)C(=O)N[C@@H](CCC(N)=O)C(=O)N[C@@H](CC(=O)O)C(=O)N[C@H](C(=O)N[C@@H](CCSC)C(=O)N[C@@H](CO)C(=O)N[C@@H](CCCNC(=N)N)C(N)=O)[C@@H](C)CC)C(C)C)[C@@H](C)O
notes: Synthetic 29-residue amide; also called GHRH analogue #4; No. 4
B3: [D-Ala2, Ala8, Ala15, Lys22] hGHRH(1-29)-NH2 (peptide)
peptide: Y[dA]DAIFTASYRKVLAQLSARKKLQDIMSR-NH2
modifications: N-terminus assumed
SMILES: CC[C@H](C)[C@H](NC(=O)[C@H](C)NC(=O)[C@H](CC(=O)O)NC(=O)[C@@H](C)NC(=O)[C@@H](N)Cc1ccc(O)cc1)C(=O)N[C@@H](Cc1ccccc1)C(=O)N[C@H](C(=O)N[C@@H](C)C(=O)N[C@@H](CO)C(=O)N[C@@H](Cc1ccc(O)cc1)C(=O)N[C@@H](CCCNC(=N)N)C(=O)N[C@@H](CCCCN)C(=O)N[C@H](C(=O)N[C@@H](CC(C)C)C(=O)N[C@@H](C)C(=O)N[C@@H](CCC(N)=O)C(=O)N[C@@H](CC(C)C)C(=O)N[C@@H](CO)C(=O)N[C@@H](C)C(=O)N[C@@H](CCCNC(=N)N)C(=O)N[C@@H](CCCCN)C(=O)N[C@@H](CCCCN)C(=O)N[C@@H](CC(C)C)C(=O)N[C@@H](CCC(N)=O)C(=O)N[C@@H](CC(=O)O)C(=O)N[C@H](C(=O)N[C@@H](CCSC)C(=O)N[C@@H](CO)C(=O)N[C@@H](CCCNC(=N)N)C(N)=O)[C@@H](C)CC)C(C)C)[C@@H](C)O
notes: Synthetic 29-residue amide; also called GHRH analogue #1; No. 1
B4: [D-Ala2, D-Tyr10, Lys22] hGHRH(1-29)-NH2 (peptide)
peptide: Y[dA]DAIFTNS[dY]RKVLGQLSARKKLQDIMSR-NH2
modifications: N-terminus assumed
SMILES: CC[C@H](C)[C@H](NC(=O)[C@H](C)NC(=O)[C@H](CC(=O)O)NC(=O)[C@@H](C)NC(=O)[C@@H](N)Cc1ccc(O)cc1)C(=O)N[C@@H](Cc1ccccc1)C(=O)N[C@H](C(=O)N[C@@H](CC(N)=O)C(=O)N[C@@H](CO)C(=O)N[C@H](Cc1ccc(O)cc1)C(=O)N[C@@H](CCCNC(=N)N)C(=O)N[C@@H](CCCCN)C(=O)N[C@H](C(=O)N[C@@H](CC(C)C)C(=O)NCC(=O)N[C@@H](CCC(N)=O)C(=O)N[C@@H](CC(C)C)C(=O)N[C@@H](CO)C(=O)N[C@@H](C)C(=O)N[C@@H](CCCNC(=N)N)C(=O)N[C@@H](CCCCN)C(=O)N[C@@H](CCCCN)C(=O)N[C@@H](CC(C)C)C(=O)N[C@@H](CCC(N)=O)C(=O)N[C@@H](CC(=O)O)C(=O)N[C@H](C(=O)N[C@@H](CCSC)C(=O)N[C@@H](CO)C(=O)N[C@@H](CCCNC(=N)N)C(N)=O)[C@@H](C)CC)C(C)C)[C@@H](C)O
notes: Synthetic 29-residue amide; also called GHRH analogue #3; No. 3
B5: [Ala8, Ala9, Ala15, Ala22] hGHRH(1-29)-NH2 (peptide)
peptide: YADAIFTAAYRKVLAQLSARKALQDIMSR-NH2
notes: Synthetic 29-residue amide; also called GHRH analogue #2; No. 2
B6: human GHRH(1-29)NH2 (peptide)
peptide: YADAIFTNSYRKVLGQLSARKLLQDIMSR-NH2
notes: also called hGHRH(1-29)NH2; hGHRH(1-29)-NH2

target: T1, human GHRH receptor; assay: competition with [125I-Tyr10]hGHRH(1-44)NH2, BHK cell membrane preparations expressing the human GHRH receptor
Method: (§1) Incubation was carried out at equilibrium (23° C., 60 min) and stopped by centrifugation (12,000 g, 5 min, at 4° C.). The radioactivity content in pellets was determined by gamma counting. […] The Ligand computerized program was used to analyze competition curves of GHRH analogues reported in Tables 2 and 3 and to determine their IC₅₀ (Gaudreau P. et al. (1992) J Med Chem, 35: 1864-1869).
(§2) IC₅₀ is the concentration of peptide inhibiting 50% of ¹²⁵I-GHRH specific binding as determined by the LIGAND program for analysis of competition curves.

Row | Binder | IC50 [nM]
1 | B1 | 0.0012

target: T2, rat GHRH receptor; assay: competition with [125I-Tyr10]hGHRH(1-44)-NH2, rat anterior pituitary membrane preparations

Row | Binder | relative binding affinity in rat anterior pituitary (compared to hGHRH(1-29)-NH2)
2 | B1 | 1.04 fold against hGHRH(1-29)-NH2
3 | B2 | 5 fold against hGHRH(1-29)-NH2
4 | B3 | 13.3 fold against hGHRH(1-29)-NH2
5 | B4 | 4.9 fold against hGHRH(1-29)-NH2
6 | B5 | 7.74 fold against hGHRH(1-29)-NH2

target: T1, human GHRH receptor; assay: competition with [125I-Tyr10]hGHRH(1-44)NH2, BHK cell membrane preparations expressing the human GHRH receptor; remark: another data set of the same source
Method: as §1, §2

Row | Binder | IC50 [nM] | relative binding affinity (R1) in comparison with hGHRH(1-29)NH2
7 | B1 | 0.006 | 939 ratio IC50 of hGHRH(1-29)-NH2 / IC50 analogue
8 | B2 | 37 | 0.05 ratio IC50 of hGHRH(1-29)-NH2 / IC50 analogue
9 | B3 | 0.033 | 499 ratio IC50 of hGHRH(1-29)-NH2 / IC50 analogue
10 | B4 | 0.0063 | 239 ratio IC50 of hGHRH(1-29)-NH2 / IC50 analogue
11 | B5 | 0.77 | 3.7 ratio IC50 of hGHRH(1-29)-NH2 / IC50 analogue

target: T1, human GHRH receptor; assay: competition with [125I-Tyr10]hGHRH(1-44)NH2, BHK cell membrane preparations expressing the human GHRH receptor (reference peptide; its IC50 is not given)
Method: as §1, §2

Row | Binder | binding result
12 | B6 | binds
